Test results from patent US20110111494A1 (APOGENIX, published 2011).

T1: recombinant CD95-ligand (UniProt P48023 142-281, limits assumed)
T1 sequence (looked up): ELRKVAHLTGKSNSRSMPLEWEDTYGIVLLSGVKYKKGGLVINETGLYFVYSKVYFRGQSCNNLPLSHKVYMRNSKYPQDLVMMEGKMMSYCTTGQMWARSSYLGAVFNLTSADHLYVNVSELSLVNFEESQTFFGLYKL

B1: hs95R-ASPD-St (CD95R-SP-D fusion polypeptide) (receptor)
chain: RLSSKSVNAQVTDINSKGLELRKTVTTVETQNLEGLHHDGQFCHKPCPPGERKARDCTVNGDEPDCVPCQEGKEYTDKAHFSSKCRRCRLCDEGHGLEVEINCTRTQNTKCRCKPNFFCNSTVCEHCDPCTKCEHGIIKECTLTSNTKCKEEGSSGSSGSSGSGLPDVASLRQQVEALQGQVQHLQAAFSQYKKVELFPNGQSVGEKIFKTAGFVKPFTEAQLLCTQAGGQLASPRSAAENAALQQLVVAKNEAAFLSMTDSKTEGKFTYPTGESLVYSNWAPGEPNDDGGSEDCVEIFTNGKWNDRACGEKRLVVCEFGGSPSSSSSSAWSHPQFEK
B2: hs95R-AT4-St (CD95R-T4 foldon fusion polypeptide) (receptor)
chain: RLSSKSVNAQVTDINSKGLELRKTVTTVETQNLEGLHHDGQFCHKPCPPGERKARDCTVNGDEPDCVPCQEGKEYTDKAHFSSKCRRCRLCDEGHGLEVEINCTRTQNTKCRCKPNFFCNSTVCEHCDPCTKCEHGIIKECTLTSNTKCKEEGSSGSSGSSGSGYIPEAPRDGQAYVRKDGEWVLLSTFLSGPSSSSSSAWSHPQFEK
B3: hs95R-A69-St (CD95R-RB69 fusion polypeptide) (receptor)
chain: RLSSKSVNAQVTDINSKGLELRKTVTTVETQNLEGLHHDGQFCHKPCPPGERKARDCTVNGDEPDCVPCQEGKEYTDKAHFSSKCRRCRLCDEGHGLEVEINCTRTQNTKCRCKPNFFCNSTVCEHCDPCTKCEHGIIKECTLTSNTKCKEEGSSGSSGSSGSGYIEDAPSDGKFYVRKDGAWVELPTASGPSSSSSSAWSHPQFEK

These molecules were tested against T1, recombinant CD95-ligand (assay: cell-based or functional assay).
Work on “dimeric CD95R-Fc fusion protein APG101 (from UniProt P25445 26-172)” yielded an EC50 (inhibition of CD95L-induced apoptosis of Jurkat cells, Caspase 3/7 activity, Ac-DEVD-AFC cleavage) of 0.595 mg/L.
In the case of B1, the “EC50 (inhibition of CD95L-induced apoptosis of Jurkat cells, Caspase 3/7 activity, Ac-DEVD-AFC cleavage)” value is reported as 0.573 mg/L.
For B2, the “EC50 (inhibition of CD95L-induced apoptosis of Jurkat cells, Caspase 3/7 activity, Ac-DEVD-AFC cleavage)” value was 0.0926 mg/L.
B3 was tested, and the “EC50 (inhibition of CD95L-induced apoptosis of Jurkat cells, Caspase 3/7 activity, Ac-DEVD-AFC cleavage)” value was 0.0876 mg/L.
